Substitutions are numbered along the chain they refer to.
Legend:
[1] = thermal denaturation midpoint temperature (Tm) by DSC, Reference Example 3; format: physicochemical; details: Fab domain peak, sodium acetate buffer pH 6.0 with 150 mmol/L NaCl, about 1 K/minute
Protocol: The thermal denaturation midpoint temperature (Tm) was determined by the top of the denaturation peak in the thermogram (Cp versus T) obtained after heating the test sample solution at a constant programmed heating rate. The Tm value of the humanized H0L0 antibody was measured using a sample solution for DSC measurement prepared as described in the following. The antibody solution (corresponding to 50 to 100 μg) filled in a dialysis membrane was first dialyzed for 24 hours against a dialysis external solution of 20 mol/L sodium acetate buffer solution (pH 6.0) containing 150 mmol/L sodium chloride. Subsequently, the sample solution was adjusted its antibody concentration of 50 to 100 μg/mL with dialysis external solution and used as the sample solution for DSC measurement.
A suitable DSC instrument, for example, DSC-II (Calorimetry Sciences Corporation), is used for this experiment. The sample solution prepared as described above and the reference solution (dialysis external solution) were thoroughly degassed, and each of these test specimens was placed in a calorimeter cell and was thermally equilibrated at 40° C. A DSC scan was then run from 40° C. to 100° C. at a scan rate of approximately 1 K/minute. The results of this measurement are given as the top of the denaturation peak as a function of temperature.

[2] = tested on: liver cancer; details: liver cancer patients, phase II; cited from earlier work
[3] = Example 2 body weight loss in HepG2 xenograft mouse model; format: in vivo; details: Sorafenib 80 mg/kg oral, relative to tumor-associated weight loss of the model
Protocol: (§1) HepG2 cells or HuH-7 cells (5×10^5 cells) dispersed in 50% Matrigel (Becton Dickinson) were subcutaneously implanted. When the tumor volume reached 250 mm^3, the mice were divided into groups and administration commenced.
(§2) The asterisks in the figures indicate that P<0.05, based on the Dunnett's test. […] The open circles indicate the change in body weight in the group given the vehicle. […] The open squares indicate the change in body weight in the group given only Sorafenib in a dose of 80 mg/kg. […]

[4] = tested on: HuH-7 xenograft; experiment: Example 2 antitumor effect, HuH-7 xenograft mouse model (hGC33 and Sorafenib); format: in vivo; details: hGC33 5 mg/kg i.v. weekly x3 alone or Sorafenib 80 mg/kg oral 5 times per week x3 alone
Protocol: as §1, §2

[5] = Example 5 body weight loss in HepG2 xenograft mouse model; format: in vivo; details: Sorafenib 80 mg/kg oral
Excerpt: Sorafenib was synthesized according to Organic Process Research & Development (2002) 6, 777-781.
Th data is expressed by the time course of the body weight of the mice (mean±SD).

[6] = biological target: T1, soluble GPC3 core polypeptide (Homo sapiens (Human), UniProt P51654 25-563); experiment: competitive ELISA, soluble GPC3 core polypeptide on plate, competitor biotinylated H0L0
T1 construct: It was immobilised on the ELISA plate at 1 ug/mL; also called glypican 3; antigen glypican 3
T1 sequence (P51654 other isoform, or with tags, fused parts or gaps limits assumed): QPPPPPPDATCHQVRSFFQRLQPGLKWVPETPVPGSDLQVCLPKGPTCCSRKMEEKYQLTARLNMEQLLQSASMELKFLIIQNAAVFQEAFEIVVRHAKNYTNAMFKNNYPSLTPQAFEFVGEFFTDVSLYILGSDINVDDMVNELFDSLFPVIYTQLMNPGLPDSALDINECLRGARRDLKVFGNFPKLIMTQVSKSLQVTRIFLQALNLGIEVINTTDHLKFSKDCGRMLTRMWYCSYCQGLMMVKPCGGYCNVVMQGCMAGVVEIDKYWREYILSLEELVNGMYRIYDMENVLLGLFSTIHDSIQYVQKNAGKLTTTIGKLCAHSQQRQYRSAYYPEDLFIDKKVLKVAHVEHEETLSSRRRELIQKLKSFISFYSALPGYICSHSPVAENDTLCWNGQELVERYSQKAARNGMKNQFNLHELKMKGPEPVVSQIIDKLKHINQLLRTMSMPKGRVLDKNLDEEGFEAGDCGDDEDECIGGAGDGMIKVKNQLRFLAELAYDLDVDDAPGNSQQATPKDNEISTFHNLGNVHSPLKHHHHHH
Protocol: 100 μL of the soluble GPC3 core polypeptide (SEQ ID NO: 36) at 1 μg/mL was added to each well of a 96-well plate. The soluble GPC3 core polypeptide was immobilized on the plate by allowing the plate to stand overnight at 4° C. The soluble GPC3 core polypeptide immobilized on the plate was washed 3 times with a washing buffer using a Skan WASHER400 (Molecular Devices); and blocked with 200 μL blocking buffer at 4° C. for at least 30 min. The blocked plate on which soluble GPC3 core polypeptide was immobilized was then washed 3 times with washing buffer using the Skan WASHER400. […] The plate was left stand for 1 hour at room temperature, then washed 5 times with washing buffer using the Skan WASHER400 (Molecular Devices). 100 μL goat anti-streptavidin alkaline phosphatase (ZYMED), diluted 20,000× with substrate buffer, was added to each well, and the resulting plate was left stand for 1 hour at room temperature, and then washed 5 times with washing buffer using the Skan WASHER400. Phosphatase Substrate (Sigma) was prepared at 1 mg/mL in the substrate buffer, added at 100 μL, per well for 1 hour. The absorbance at 405 nm of the reaction solution in each well was measured using a Benchmark Plus (BIO-RAD), with the control absorbance at 655 nm.

[7] = tested on: liver cancer cells; details: against liver cancer cells; see WO 2006/006693; cited from earlier work
[8] = pI value by electrophoresis with PhastGel IEF 4-6.5, Reference Example 4; format: physicochemical; details: for pI value: PhastGel IEF 4-6.5
Protocol: The pI values of the Hd1.8Ld1.6 antibody and pH7pL16 antibody were measured by electrophoresis with PhastGel IEF 4-6.5 (GE Healthcase) using the method described in Reference Example 3 or similar method.

[9] = biological target: soluble GPC3 core polypeptide (Homo sapiens, UniProt P51654, S495A/S509A); experiment: competitive ELISA of binding activity against biotinylated humanized H0L0 antibody; details: for antigen binding activity compared with humanized H0L0 antibody: Reference Example 3
Sequence of soluble GPC3 core polypeptide (Homo sapiens, UniProt P51654, S495A/S509A) (P51654 with tags, fused parts or gaps S495A/S509A): as the sequence (P51654 other isoform, or with tags, fused parts or gaps limits assumed) above
Protocol: The humanized H0L0 antibody and its point mutation-modified antibodies purified in (1) was evaluated by competitive ELISA. 100 μL of the soluble GPC3 core polypeptide (SEQ ID NO: 36) at 1 μg/mL was added to each well of a 96-well plate. The soluble GPC3 core polypeptide was immobilized on the plate by allowing the plate to stand overnight at 4° C. The soluble GPC3 core polypeptide immobilized on the plate was washed 3 times with a washing buffer using a Skan WASHER400 (Molecular Devices); and blocked with 200 μL blocking buffer at 4° C. for at least 30 min. The blocked plate on which soluble GPC3 core polypeptide was immobilized was then washed 3 times with washing buffer using the Skan WASHER400. Subsequently, each well of the plate received 200 μL of a mixture containing 100 μL of biotinylated humanized H0L0 antibody (final concentration=0.3 μg/mL) and 100 μL of the humanized H0L0 antibody or its point mutation-modified antibody (at various concentrations). The humanized H0L0 antibody was biotinylated using a Biotin Labeling Kit (Roche) according to the instructions provided with the kit. The plate was left stand for 1 hour at room temperature, then washed 5 times with washing buffer using the Skan WASHER400 (Molecular Devices). 100 μL goat anti-streptavidin alkaline phosphatase (ZYMED), diluted 20,000× with substrate buffer, was added to each well, and the resulting plate was left stand for 1 hour at room temperature, and then washed 5 times with washing buffer using the Skan WASHER400. Phosphatase Substrate (Sigma) was prepared at 1 mg/mL in the substrate buffer, added at 100 μL, per well for 1 hour. The absorbance at 405 nm of the reaction solution in each well was measured using a Benchmark Plus (BIO-RAD), with the control absorbance at 655 nm.
The binding activity to the antigen glypican 3 of each point mutation pI modified antibody was measured using the method described in Reference Example 3.

[10] = Tm of Fabs by VP-DSC, Reference Example 4; format: physicochemical; details: PBS, 20° C. to 115° C., about 4K/min
Protocol: The Tm values of Fabs obtained from Hd1.8Ld1.6 antibody and pH7pL16 antibody were measured with VP-DSC (Micro Cal) using the method similar to Reference Example 3. In this experiment, PBS was used as a dialysis solution, and the antibody concentration in the test solution for DSC measurement was adjusted to 25-100 μg/ml. DSC scanning was set from 20° C. to 115° C. at the scanning rate of about 4K/min, with the reference solution (dialysis solution) and DSC measurement test solution. The thermal denaturation midpoint temperature of the Fabs of the Hd1.8Ld1.6 antibody and pH7pL16 antibody was 77.5 and 74.7° C., respectively.

[11] = pI value by isoelectric electrophoresis, Reference Example 3; format: physicochemical
Protocol: The pI value of each antibody was calculated based on the analysis by isoelectric electrophoresis. Electrophoresis was carried out as described in the following. Using a Phast-System Cassette (Amersham Bioscience), Phast-Gel Dry IEF (Amersham Bioscience) gel was swollen for about 60 minutes with a swelling solution with the composition given below.
• 1.5 mL 10% glycerol • 100 μL Pharmalyte 8-10.5 for IEF (Amersham Bioscience)
• 1.5 mL purified water • 20 μL Pharmalyte 8-10.5 for IEF (Amersham Bioscience) • 80 μL Pharmalyte 5-8 for IEF (Amersham Bioscience)
Approximately 0.5 μg antibody was loaded on the swollen gel and isoelectric electrophoresis was run using the PhastSystem (Amersham Bioscience) controlled by the program described below. The sample was added to the gel at Step 2 of this program. A Calibration Kit for pI (Amersham Bioscience) was used for the pI markers.
After electrophoresis, the gel was fixed with 20% TCA and silver staining was then carried out using a Silver Staining Kit, Protein (Amersham Bioscience) according to the instructions provided with the kit. After staining, the isoelectric point of each antibody (test sample) was calculated based on the already known isoelectric points of the pI markers.

## Synagis: example of existing antibodies
[1]
  Tm value (thermal denaturation midpoint temperature): 85.4 °C

## CS(=O)(=O)CCNCc1ccc(-c2ccc3ncnc(Nc4ccc(OCc5cccc(F)c5)c(Cl)c4)c3c2)o1 [lapatinib]
[2]
  rate of response: 0%
  time to progression: 1.8 months

## CNC(=O)c1cc(Oc2ccc(NC(=O)Nc3ccc(Cl)c(C(F)(F)F)c3)cc2)ccn1 [Sorafenib, 4-[4-[[4-chloro-3-(trifluoromethyl)phenyl]carbamoylamino]phenoxy]-N-methylpyridine-2-carboxamide]
[3]
  weight loss with Sorafenib alone: further enhanced
[4]
  tumor growth, single agent: suppressed
[5]
  weight loss with Sorafenib alone: enhanced

B1: H15L4 antibody (antibody, V domains shown)
VH: QVQLVQSGAEVKKPGASVKVSCKASGYTFTDYEMHWIRQPPGQGLEWIGAIDPKTGDTAYSQKFKGRVTLTADKSTSTAYMELSSLTSEDTAVYYCTRFYSYTYWGQGTLVTVSS
VL: DIVMTQSPLSLPVTPGEPASISCRSSQSLVHSNRNTYLHWYQQKPGQAPRLLIYKVSNRFSGVPDRFSGSGSGTDFTLKISRVEAEDVGVYYCSQNTHVPPTFGQGTKLEIK
[6]
  binding result: binds

B2: Hspd1.8Lspd1.6 (Hd1.8Ld1.6) antibody (antibody, V domains shown)
VH: B1 VH with K19T, Q43E, K63S, K65Q, G66D
VL: B1 VL with S25A, Q27E, K79T, R82S, V83L, E84Q
[6]
  binding result: binds

B3: GC33: Mouse anti-human glypican 3 monoclonal antibody, clone GC33, WO 2006/006693; variable regions SEQ ID NOs: 1 and 2 (antibody, V domains shown)
VH: QVQLQQSGAELVRPGASVKLSCKASGYTFTDYEMHWVKQTPVHGLKWIGALDPKTGDTAYSQKFKGKATLTADKSSSTAYMELRSLTSEDSAVYYCTRFYSYTYWGQGTLVTVSA
VL: DVVMTQTPLSLPVSLGDQASISCRSSQSLVHSNGNTYLHWYLQKPGQSPKLLIYKVSNRFSGVPDRFSGSGSGTDFTLKISRVEAEDLGVYFCSQNTHVPPTFGSGTKLEIK
modifications: Modified antibody
[7]
  ADCC and CDC activities: greater

B4: hGC33: humanized anti-glypican 3 antibody, H chain variable region SEQ ID NO: 3, L chain SEQ ID NO: 4 (antibody, V domains shown)
VH: B1 VH with I37V, P40A, I48M, I51L
VL: B1 VL with I2V, R34G, Q42L, A48S, R50Q
modifications: Modified antibody
[4]
  tumor growth, single agent: suppressed

B5: Hd1.8Ld1.6: antibody composed of Hspd1.8 (SEQ ID NO: 27) and Lspd1.6 (SEQ ID NO: 29), lowered pI (antibody, V domains shown)
VH: B1 VH with K19T, Q43E, K63S, K65Q, G66D
VL: B1 VL with S25A, Q27E, K79T, R82S, V83L, E84Q
modifications: Modified antibody
[8]
  pI value: 7.47
[9]
  antigen binding activity compared with humanized H0L0 antibody: about the same
[10]
  thermal denaturation midpoint temperature of the Fabs: 77.5 °C
[11]
  reduction of pI relative to humanized H0L0 antibody: 1.5
[11]; isoelectric electrophoresis, Phast-Gel Dry IEF
  pI value: 7.4

B6: H15L4: antibody combining heavy chain H15 (SEQ ID NO: 34) and light chain L4 (SEQ ID NO: 35) (antibody, V domains shown)
VH: B1 VH
VL: B1 VL
modifications: Modified antibody
[9]
  antigen binding activity compared with humanized H0L0 antibody: about the same

B7: pH7pL16: pI modified humanized anti-glypican 3 antibody, pH7 (SEQ ID NO:31) and pL16 (SEQ ID NO:33) (antibody, V domains shown)
VH: B1 VH with K19T, Q43E, Q62E, K63S, K65Q, G66D
VL: B1 VL with R24Q, S25A, Q27E, Q42L, A48S, R50Q, L109V, K112E
modifications: Modified antibody
[8]
  pI lower than that of Hd1.8Ld1.6 antibody by: 0.95
  pI value: 6.52
[9]; Reference Example 4
  binding activity to glypican 3 compared with humanized H0L0 antibody: comparative
[10]
  thermal denaturation midpoint temperature of the Fabs: 74.7 °C
